# US20080311122A1, “Antagonists of Hmgb1 and/or Rage and Methods of Use Thereof” (Medimmune, LLC, priority 2005, published 2008)
# Like-named read-outs stand apart in the source and are kept apart here.
# T1: interaction of CpG and HMGB1 (Bos taurus, UniProt P10103)
# T1 construct: from tissue; host or cells: bovine thymus
# T1 sequence (P10103 2-215 limits assumed): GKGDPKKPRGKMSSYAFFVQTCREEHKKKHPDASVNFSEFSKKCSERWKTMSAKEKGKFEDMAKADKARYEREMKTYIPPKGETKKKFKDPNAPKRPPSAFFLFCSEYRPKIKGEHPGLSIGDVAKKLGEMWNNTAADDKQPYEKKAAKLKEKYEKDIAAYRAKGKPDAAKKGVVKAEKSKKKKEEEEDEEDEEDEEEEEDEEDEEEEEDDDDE
# Legend:
# mouse macrophages = assay: TNF-a induction in mouse macrophages; type: cell-based
# Method: TNF-a Induction: To examine mRNA levels macrophages were derived from mouse bone marrow using M-CSF. Macrophages were then stimulated by LPS, E. coli produced recombinant HMGB1 or HMGB1 purified from bovine thymus for indicated length of time and mRNA is measured by Taqman. To examine protein levels thioglycant activated mouse peritoneal macrophages were stimulated with 10 μg/mL of HMGB1 purified from bovine thymus or recombinant HMGB1 generated from E. coli for 24 hr. Cytokines in the supernatant were measured by ELISA.
# [1] = biological target: T1, interaction of CpG and HMGB1; assay: CpG ELISA, HMGB1 binding to CpG
# Method: CpG ELISA: Proteins or peptides were diluted in PBS to the concentration of 5 μg/ml and coated onto plates at 4° C. o/n. Plates were blocked with 4% dry milk in PBS. Biotin labeled CpG-A alone or in complex with HMGB1 were incubated in the plates at 37° C. for 1 hr. and detected with HRP labeled strep-avidin.
# [2] = test system: CpG2216+thymus HMG1 induced IFN-a release (TLR9 signaling); assay: Inhibition of HMG1 mediated enhancement of TLR9 signaling, CpG2216 + thymus HMG1 in bone marrow cells; type: cell-based; conditions: mouse bone marrow cells
# Method: HMGB1+TLR Ligand: Freshly isolated bone marrow cells were stimulated with TLR ligands (TLR3:PolyIC@5 μg/mL; TLR4:LPS@2.5 ng/mL; TLR5:flagellin@0.25 μg/mL; TLR7:polyU@4 μg/mL or R837@5 μg/mL; TLR9:CpG2216@1 μM) with or without presence of thymus HMGB1 (10 μg/mL) for 24 hr. Cytokines in the supernatant were measured by ELISA.
# Inhibition of HMG1 Mediated Enhancement of TLR Signaling: Freshly isolated bone marrow cells were stimulated with TLR9 ligand CpG2216 (0.3 μM) and thymus HMGB1 (10 μg/mL) in the presence of different concentration of the anti-HMGB1 mAb E11 or control human IgG for 24 hr and IFN-a in the supernatant was measured by ELISA. CpG2216, HMGB1 and nonstimulatory DNA were used alone or in combination as controls for the assay.
# AM14 B cells = assay: AM14 proliferation assay; type: cell-based, mouse; conditions: for inhibition of DNA immune complex (PL2-3) dependent proliferation of AM14 B cells: thymidine incorporation
# Method: AM14 proliferation assay: Purified AM14 B cells were preincubated with RAGE-Fc or control human IgG1 for 30 min at 37° C., and stimulated with 0.1 μg/ml of PL2-3 for 24 h at 37° C. Cells were then pulsed with [^3H]thymidine for 6 h.
# [3] = test system: HMG1 stimulated cytokine gene expression in mouse macrophages; assay: Taqman analysis of mouse macrophages (mMØ) stimulated with HMG1; type: cell-based; conditions: rHMG1
# Method: Taqman Analysis of Mouse Macrophages (mMØ) Stimulated with HMG1: Mouse bone marrow was harvested by rinsing the femurs of normal C57BL/6 mice. The isolated bone marrow cells were then cultured in Dulbecco's modified Eagle's medium (DMEM) supplemented with 10% fetal bovine serum (FBS) and 50 ng/ml M-CSF for 24 h, nonadherent cells were collected and grown for 6 days in complete DMEM supplemented with 10% FBS and 50 ng/ml M-CSF in T-75 flasks (1×10^7 cells/15 ml/flask). On day 6, adherent cells were harvested and reseeded with 5 ng/ml MCSF in α-MEM containing 10% FBS in 96-well plates (1×10^5 cells/200 μl/well) overnight.
# The culture medium was replaced with α-MEM and incubated for 2 hours before stimulation to starve cells. HMGB1 (recombinant CBP-HMGB1 fusion protein generated from E. coli at 10 μg/ml), mouse-RAGE-Fc or human-RAGE-Fc fusion protein were pre-mixed with various blocking reagents at 100 μg/ml in α-MEM for 20 min at RT, then 100 μl of the mixtures was added to the cells and incubated at 37° C. for 2 hours. The supernatant was then removed, and the RNA was extracted using Ambion's MagMAX™-96 Total RNA Isolation Kit. All of the recovered RNA were used in a reverse transcriptase (RT) reaction with SuperScript™ III and oligo(dT) primer (Invitrogen) for synthesis of cDNA. 1 μl or 2 μl of the resulting cDNA was used for real time quantitative PCR analysis (TaqMan) using ABI Prism 7700 or 7000.
molecule,measurement,setting,value
"rHMG1: E. coli produced recombinant HMG1 (CBP fusion protein) (protein, left off: small tags and cut ends) MGKGDPKKPRGKMSSYAFFVQTCREEHKKKHPDASVNFSEFSKKCSERWKTMSAKEKGKFEDMAKADKARYEREMKTYIPPKGETKKKFKDPNAPKRPPSAFFLFCSEYRPKIKGEHPGLSIGDVAKKLGEMWNNTAADDKQPYEKKAAKLKEKYEKDIAAYRAKGKPDAAKKGVVKAEKSKKKKEEEEDEEDEEDEEEEEDEEDEDEEEDDDDE",induction of TNF-a mRNA levels,mouse macrophages; 2 hours,~43 fold
same,increase in TNF-a protein levels,"mouse macrophages; 24 hours, supernatant",~10 fold
"A-box: synthesized HMGB1 A-box peptide (SEQ ID NO: 108), a known HMGB1 antagonist (peptide, listed as Homo sapiens) PRGKMSSYAFFVQTCREEHKKKHPDASVNFSEFSKKCSERWKTMSAKEKGKFEDMAKADKARYEREMKTYIPPKGET",inhibition of the interaction of CpG and HMGB1,[1],inhibit the interaction of CpG and HMGB1
same,inhibition of the interaction of CpG and HMGB1,[1]; listed as A box HMGB1,prevented the binding of HMGB1 to CpG DNA
same,inhibition of IFN-a release induced by CpG + thymus HMG1,[2],inhibit IFN-a release
same,inhibition of IFN-a release induced by CpG + thymus HMG1,[2]; listed as HMGB1 A-box,did not show inhibition in this assay
same,"effect on TLR2, TLR4 ligand induced proliferation or BCR mediated B cell activation",AM14 B cells,had no effect
same,inhibition of DNA immune complex (PL2-3) dependent proliferation of AM14 B cells,AM14 B cells; listed as A box antagonist,reduced proliferation
same,inhibition of DNA immune complex (PL2-3) dependent proliferation of AM14 B cells,AM14 B cells; listed as HMGB A box,markedly inhibited PL2-3-dependent proliferation of AM14 B cells
"mouse RAGE-Fc fusion protein: mouse RAGE-Fc fusion protein (protein, left off: a dimerising Fc or GST) QNITARIGEPLVLSCKGAPKKPPQQLEWKLNTGRTEAWKVLSPQGGPWDSVARILPNGSLLLPATGIVDEGTFRCRATNRRGKEVKSNYRVRVYQIPGKPEIVDPASELTASVPNKVGTCVSEGSYPAGTLSWHLDGKLLIPDGKETLVKEETRRHPETGLFTLRSELTVIPTQGGTHPTFSCSFSLGLPRRRPLNTAPIQLRVREPGPPEGIQLLVEPEGGIVAPGGTVTLTCAISAQPPPQVHWIKDGAPLPLAPSPVLLLPEVGHEDEGTYSCVATHPSHGPQESPPVSIRVTETGDEGPAEGSVGESGLGTLALA",inhibition of HMG1-induced IL-1β gene expression,[3],robustly inhibited
same,inhibition of HMG1-induced TNF-a gene expression,[3],robustly inhibited
